Test results: patent US20240270821A1, “GIP/GLP1/GCG TRI-RECEPTOR AGONISTS AND USES THEREOF” (priority 2023, published 2024)
Changes are numbered by the printed parent chain.

T1: human GIP receptor (human) (UniProt P48546)
T1 sequence (looked up): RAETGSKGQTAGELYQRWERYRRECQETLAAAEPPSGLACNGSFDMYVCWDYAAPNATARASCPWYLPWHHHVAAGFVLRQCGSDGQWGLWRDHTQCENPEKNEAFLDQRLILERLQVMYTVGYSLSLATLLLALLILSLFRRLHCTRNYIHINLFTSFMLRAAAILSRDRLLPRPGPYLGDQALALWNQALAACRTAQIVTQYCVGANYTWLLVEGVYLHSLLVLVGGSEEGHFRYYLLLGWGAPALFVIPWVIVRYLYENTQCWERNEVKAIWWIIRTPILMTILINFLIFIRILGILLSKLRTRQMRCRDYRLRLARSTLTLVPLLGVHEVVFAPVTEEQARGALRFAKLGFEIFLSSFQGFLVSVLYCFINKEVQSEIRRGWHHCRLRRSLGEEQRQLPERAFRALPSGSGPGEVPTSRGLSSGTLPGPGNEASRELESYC

B1: Example 799 (peptide)
chain: YXQGTFTSDFSXXLDKKAQXAFIEYLIEXGPSSGAPPPSGS
modifications: synthetic construct; SITE 2: note = 2-Aminoisobutyric Acid; SITE 12: note = (S)-2,4-diaminobutanoic acid; SITE 13: note = alpha-methyl-leucine; SITE 17: note = Lysine is chemically modified through conjugation of the epsilon-amino group of the Lysine side chain with (2-[2-(2-Amino-ethoxy)-ethoxy]-ac)
B2: Example 784 (peptide)
chain: B1 chain with X12Q, I27L
modifications: synthetic construct; SITE 2: note = 2-Aminoisobutyric Acid; SITE 13: note = alpha-methyl-leucine; SITE 17: note = Lysine is chemically modified through conjugation of the epsilon-amino group of the Lysine side chain with (gamma-Glu)2-CO-(CH2)16-CO2H; SITE 20: note = 2-Aminoisobutyric Acid; SITE 29:
B3: Example 76 (peptide)
chain: B1 chain with I27L, E28A, X29G
modifications: synthetic construct; SITE 2: note = 2-Aminoisobutyric Acid; SITE 12: note = L-ornithine; SITE 13: note = alpha-methyl-leucine; SITE 17: note = Lysine is chemically modified through conjugation of the epsilon-amino group of the Lysine side chain with (2-[2-(2-Amino-ethoxy)-ethoxy]-acetyl)-(gamma-Glu)
B4: Example 787 (peptide)
chain: B1 chain with X12Q, I27L, P31E
modifications: synthetic construct; SITE 2: note = 2-Aminoisobutyric Acid; SITE 13: note = alpha-methyl-leucine; SITE 17: note = Lysine is chemically modified through conjugation of the epsilon-amino group of the Lysine side chain with (2-[2-(2-Amino-ethoxy)-ethoxy]-acetyl)2-(gamma-Glu)-CO-(CH2 )16-CO2H; SITE 20:
B5: Example 773 (peptide)
chain: B1 chain with X12Q, I27L, E28A, X29G, A35E
modifications: synthetic construct; SITE 2: note = 2-Aminoisobutyric Acid; SITE 13: note = alpha-methyl-leucine; SITE 17: note = Lysine is chemically modified through conjugation of the epsilon-amino group of the Lysine side chain with (2-[2-(2-Amino-ethoxy)-ethoxy]-acetyl)-(gamma-Glu)-CO-(CH2) 16-CO2H; SITE 20: n
B6: Example 772 (peptide)
chain: B1 chain with X12Q, I27L, E28A, X29G, S39E
modifications: synthetic construct; SITE 2: note = 2-Aminoisobutyric Acid; SITE 13: note = alpha-methyl-leucine; SITE 17: note = Lysine is chemically modified through conjugation of the epsilon-amino group of the Lysine side chain with (2-[2-(2-Amino-ethoxy)-ethoxy]-acetyl)-(gamma-Glu)-CO-(CH2) 16-CO2H; SITE 20: n
B7: Example 780 (peptide)
chain: B1 chain with X12Q, I27L, X29A, G34X, S41T
modifications: no C-terminal amide; synthetic construct; SITE 2: note = 2-Aminoisobutyric Acid; SITE 13: note = alpha-methyl-leucine; SITE 17: note = Lysine is chemically modified through conjugation of the epsilon-amino group of the Lysine side chain with (2-[2-(2-Amino-ethoxy)-ethoxy]-acetyl)-(gamma-Glu)-CO-(CH2) 16-CO2H; SITE 20: n
B8: Example 796 (peptide)
chain: B1 chain
modifications: synthetic construct; SITE 2: note = 2-Aminoisobutyric Acid; SITE 12: note = L-ornithine; SITE 13: note = alpha-methyl-leucine; SITE 17: note = Lysine is chemically modified through conjugation of the epsilon-amino group of the Lysine side chain with (2-[2-(2-Amino-ethoxy)-ethoxy]-acetyl)-(gamma-Glu)
B9: Example 777 (peptide)
chain: B1 chain with X12Q, I27L, X29A, S41X
modifications: synthetic construct; SITE 2: note = 2-Aminoisobutyric Acid; SITE 13: note = alpha-methyl-leucine; SITE 17: note = Lysine is chemically modified through conjugation of the epsilon-amino group of the Lysine side chain with (2-[2-(2-Amino-ethoxy)-ethoxy]-acetyl)-(gamma-Glu)-CO-(CH2) 16-CO2H; SITE 20: n
B10: Example 771 (peptide)
chain: B1 chain with I27L, X29G, A35X, S39G
modifications: not fully specified; synthetic construct; SITE 2: note = 2-Aminoisobutyric Acid; SITE 12: note = L-ornithine; SITE 13: note = alpha-methyl-leucine; SITE 17: note = Lysine is chemically modified through conjugation of the epsilon-amino group of the Lysine side chain with (gamma-Glu)2-CO-(CH2)16-CO2H; SITE 20: note = 2-Am
B11: Example 795 (peptide)
chain: B1 chain with X12Q, X29G, P31E
modifications: synthetic construct; SITE 2: note = 2-Aminoisobutyric Acid; SITE 13: note = alpha-methyl-leucine; SITE 17: note = Lysine is chemically modified through conjugation of the epsilon-amino group of the Lysine side chain with (2-[2-(2-Amino-ethoxy)-ethoxy]-acetyl)-(gamma-Glu)-CO-(CH2) 16-CO2H; SITE 20: n
B12: Example 800 (peptide)
chain: B1 chain
modifications: synthetic construct; SITE 2: note = 2-Aminoisobutyric Acid; SITE 12: note = (S)-2,3-diaminopropanoic acid; SITE 13: note = alpha-methyl-leucine; SITE 17: note = Lysine is chemically modified through conjugation of the epsilon-amino group of the Lysine side chain with (2-[2-(2-Amino-ethoxy)-ethoxy]-a)
B13: Example 797 (peptide)
chain: B1 chain with X12K
modifications: synthetic construct; SITE 2: note = 2-Aminoisobutyric Acid; SITE 13: note = alpha-methyl-leucine; SITE 17: note = Lysine is chemically modified through conjugation of the epsilon-amino group of the Lysine side chain with (2-[2-(2-Amino-ethoxy)-ethoxy]-acetyl)-(gamma-Glu)-CO-(CH2) 16-CO2H; SITE 20: n
B14: Example 779 (peptide)
chain: B1 chain with X12Q, I27L, X29A, G34X, S41T
modifications: synthetic construct; SITE 2: note = 2-Aminoisobutyric Acid; SITE 13: note = alpha-methyl-leucine; SITE 17: note = Lysine is chemically modified through conjugation of the epsilon-amino group of the Lysine side chain with (2-[2-(2-Amino-ethoxy)-ethoxy]-acetyl)-(gamma-Glu)-CO-(CH2) 16-CO2H; SITE 20: n

What was measured:
Test in all cases: cell-based or functional assay
hGLP-1R = hGLP-1R (Homo sapiens, UniProt P43220)
[1] = molecular target: T1, human GIP receptor (human)
[2] = molecular target: human glucagon receptor (human) (UniProt P47871)
Chain of human glucagon receptor (human) (P47871 26-477): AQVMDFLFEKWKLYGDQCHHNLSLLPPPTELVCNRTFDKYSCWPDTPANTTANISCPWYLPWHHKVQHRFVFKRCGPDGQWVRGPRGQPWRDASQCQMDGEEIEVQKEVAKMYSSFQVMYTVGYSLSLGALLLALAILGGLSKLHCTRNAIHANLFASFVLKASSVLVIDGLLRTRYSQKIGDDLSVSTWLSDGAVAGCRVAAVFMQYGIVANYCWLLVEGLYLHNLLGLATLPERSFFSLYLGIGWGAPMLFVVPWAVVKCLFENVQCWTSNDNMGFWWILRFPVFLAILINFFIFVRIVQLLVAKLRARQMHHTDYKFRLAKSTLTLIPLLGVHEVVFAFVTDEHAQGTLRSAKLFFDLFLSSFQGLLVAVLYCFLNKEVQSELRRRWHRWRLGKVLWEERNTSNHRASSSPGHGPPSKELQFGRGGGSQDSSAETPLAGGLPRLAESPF

Chain of hGLP-1R (P43220 24-463): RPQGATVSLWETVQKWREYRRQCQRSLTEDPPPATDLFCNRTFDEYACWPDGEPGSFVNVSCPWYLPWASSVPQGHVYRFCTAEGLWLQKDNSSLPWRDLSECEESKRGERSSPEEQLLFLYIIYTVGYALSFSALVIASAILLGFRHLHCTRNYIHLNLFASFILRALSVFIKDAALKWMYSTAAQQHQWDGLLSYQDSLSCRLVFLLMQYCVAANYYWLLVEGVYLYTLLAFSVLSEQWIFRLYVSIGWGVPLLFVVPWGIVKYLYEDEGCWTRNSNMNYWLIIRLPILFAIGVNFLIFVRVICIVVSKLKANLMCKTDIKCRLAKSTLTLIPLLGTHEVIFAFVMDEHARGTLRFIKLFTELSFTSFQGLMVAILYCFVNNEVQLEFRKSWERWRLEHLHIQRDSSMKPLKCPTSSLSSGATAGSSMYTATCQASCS

Row | Binder | Relative cAMP EC50 (hGLP-1R) [nM] | cAMP Rel EC50 (1% HSA) (hGLP-1R) [nM] | Relative cAMP EC50 [1] [nM] | cAMP Rel EC50 (1% HSA) [1] [nM] | Relative cAMP EC50 [2] [nM] | cAMP Rel EC50 (1% HSA) [2] [nM] | cAMP Rel EC50, nM (1% HSA) (hGLP-1R) [nM] | cAMP Rel EC50, nM (1% HSA) [1] [nM] | cAMP Rel EC50, nM (1% HSA) [2] [nM] | cAMP Rel EC50, nM (in the presence of 1% HSA) (hGLP-1R) [nM] | cAMP Rel EC50, nM (in the presence of 1% HSA) [1] [nM] | cAMP Rel EC50, nM (in the presence of 1% HSA) [2] [nM]
1 | B1 | 0.462 | 179 | 0.0668 | 18.4 | 1.64 | 574 |  |  |  |  |  | 
2 | B2 | 2.09 |  | 0.0587 |  | 5.21 |  | 284 | 11.8 | 711 |  |  | 
3 | B3 | 2.25 |  | 0.196 |  | 11.1 |  |  |  |  | 436 | 45.5 | 2240
4 | B4 | 2.55 |  | 0.0675 |  | 7.81 |  | 382 | 18.6 | 2060 |  |  | 
5 | B5 | 1.97 |  | 0.0974 |  | 15.3 |  | 241 | 26.3 | 2260 |  |  | 
6 | B6 | 1.38 |  | 0.115 |  | 15.9 |  | 206 | 21.6 | 1880 |  |  | 
7 | B7 | 1.26 |  | 0.111 |  | 4.84 |  | 211 | 22.1 | 1250 |  |  | 
8 | B8 | 0.602 |  | 0.098 |  | 5.3 |  | 125 | 17.5 | 1000 |  |  | 
9 | B9 | 0.913 |  | 0.113 |  | 3.89 |  | 231 | 22.2 | 1320 |  |  | 
10 | B10 | 4.38 |  | 0.232 |  | 5.05 |  | 665 | 44.2 | 955 |  |  | 
11 | B11 | 0.972 |  | 0.345 |  | 1.77 |  | 221 | 67.3 | 566 |  |  | 
12 | B12 | 0.486 | 164 | 0.283 | 40.2 | 21 | 2500 |  |  |  |  |  | 
13 | B13 | 0.449 | 102 | 0.0781 | 16.7 | 3.78 | 963 |  |  |  |  |  | 
14 | B14 | 0.949 |  | 0.112 |  | 4.58 |  | 175 | 19.3 | 1020 |  |  | 
